{"source": "paper PMC10402027", "about": "(bioRxiv, 2023)", "biological_target": "T1, progesterone receptor, B isoform (PR-B) (UniProt P06401 1-933)", "T1 sequence": "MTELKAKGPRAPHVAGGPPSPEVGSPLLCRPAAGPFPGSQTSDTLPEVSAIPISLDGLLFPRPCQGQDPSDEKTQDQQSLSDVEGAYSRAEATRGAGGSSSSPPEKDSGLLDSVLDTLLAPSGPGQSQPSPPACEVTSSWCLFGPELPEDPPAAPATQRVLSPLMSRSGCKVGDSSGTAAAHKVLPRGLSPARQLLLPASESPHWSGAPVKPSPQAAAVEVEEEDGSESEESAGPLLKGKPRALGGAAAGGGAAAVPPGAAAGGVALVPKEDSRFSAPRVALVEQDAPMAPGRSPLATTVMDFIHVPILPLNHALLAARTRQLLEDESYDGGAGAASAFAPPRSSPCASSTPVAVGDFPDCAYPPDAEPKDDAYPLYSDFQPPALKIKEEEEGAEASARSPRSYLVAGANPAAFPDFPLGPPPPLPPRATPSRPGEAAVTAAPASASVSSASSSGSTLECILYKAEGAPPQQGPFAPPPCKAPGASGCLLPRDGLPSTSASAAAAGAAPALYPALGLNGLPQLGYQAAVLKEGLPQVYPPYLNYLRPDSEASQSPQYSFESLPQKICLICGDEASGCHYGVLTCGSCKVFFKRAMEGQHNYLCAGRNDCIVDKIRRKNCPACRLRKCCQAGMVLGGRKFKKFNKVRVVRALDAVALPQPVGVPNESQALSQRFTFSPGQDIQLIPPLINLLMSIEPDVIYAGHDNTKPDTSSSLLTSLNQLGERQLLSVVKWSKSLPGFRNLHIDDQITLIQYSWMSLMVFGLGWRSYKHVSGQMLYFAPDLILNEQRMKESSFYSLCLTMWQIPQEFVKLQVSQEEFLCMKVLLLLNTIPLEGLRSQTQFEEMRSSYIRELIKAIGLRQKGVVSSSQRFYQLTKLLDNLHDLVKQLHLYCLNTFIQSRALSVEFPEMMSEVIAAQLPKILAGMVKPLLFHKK", "test": "FRET or BRET"}
{"binder": "estrogen receptor alpha Y537S (ERα Y537S) (receptor) MTMTLHTKASGMALLHQIQGNELEPLNRPQLKIPLERPLGEVYLDSSKPAVYNYPEGAAYEFNAAAAANAQVYGQTGLPYGPGSEAAAFGSNGLGGFPPLNSVSPSPLMLLHPPPQLSPFLQPHGQQVPYYLENEPSGYTVREAGPPAFYRPNSDNRRQGGRERLASTNDKGSMAMESAKETRYCAVCNDYASGYHYGVWSCEGCKAFFKRSIQGHNDYMCPATNQCTIDKNRRKSCQACRLRKCYEVGMMKGGIRKDRRGGRMLKHKRQRDDGEGRGEVGSAGDMRAANLWPSPLMIKRSKKNSLALSLTADQMVSALLDAEPPILYSEYDPTRPFSEASMMGLLTNLADRELVHMINWAKRVPGFVDLTLHDQVHLLECAWLEILMIGLVWRSMEHPGKLLFAPNLLLDRNQGKCVEGMVEIFDMLLATSSRFRMMNLQGEEFVCLKSIILLNSGVYTFLSSTLKSLEEKDHIHRVLDKITDTLIHLMAKAGLTLQQQHQRLAQLLLILSHIRHMSNKGMEHLYSMKCKNVVPLSDLLLEMLDAHRLHAPTSRGGASVEETDQSHLATAGSTSSHSLQKYYITGEAEGFPATV", "values": [{"measurement": "fold of the progesterone-induced increase in NanoBRET proximity against ERα WT", "result": "~2", "unit": "fold"}]}
